Results from patent publication US20250236642A1, “PHARMACEUTICAL COMPOSITION FOR TREATMENT OR PREVENTION OF ADULT T-CELL LEUKEMIA” (NEC Corporation, priority 2022, published 2025).

What follows are binders tested against HLA-A*02:01 molecule (assay: flow cytometry, T2 cells). Conditions: not given.
Work on YQLSPPITW (modifications not checked) [peptide of SEQ ID NO: 32] yielded a -log Kd value of -3.46.
For ALPAPHLTL (modifications not checked) [peptide of SEQ ID NO: 18], the -log Kd value was -5.99.
With IALETPVWI (modifications not checked) [peptide of SEQ ID NO: 20] the -log Kd value was -5.11.
With IQYSSFHNL (modifications not checked) [peptide of SEQ ID NO: 21] the -log Kd value was -5.29.
In the case of ALQFLIPRL (modifications not checked) [peptide of SEQ ID NO: 22], the -log Kd value is reported as -5.9.
Binder ALQPPCPNL (modifications not checked) [peptide of SEQ ID NO: 31] has a -log Kd value of -5.13.

What follows are binders tested against HLA-A*02:06 molecule (assay: flow cytometry, RA2.6 cells). Conditions: not given.
With YTYDPPTTI [peptide of SEQ ID NO: 3] the -log Kd value was -5.17.

Target: HLA-A*02:06 molecule
Assay: flow cytometry, RA2.6 cells
Conditions: not given
Remark: another data set of the same source
ISAYRTCWI [peptide of SEQ ID NO: 34] was tested, and the -log Kd value was -3.14.
Binder FSNDFGQSL [peptide of SEQ ID NO: 35] has a -log Kd value of -4.71.
For CMIVHQGTI [peptide of SEQ ID NO: 36], the -log Kd value was -4.37.
Work on SSFEFFEEA [peptide of SEQ ID NO: 37] yielded a -log Kd value of -7.42.
CTDEHQWQL [peptide of SEQ ID NO: 39] showed a -log Kd value of -6.8.
In the case of YLYDPPTTI [peptide of SEQ ID NO: 4], the -log Kd value is reported as -5.87.
LIEEHGATL [peptide of SEQ ID NO: 40] gave a -log Kd value of -4.81.
With LLEEHGATL [peptide of SEQ ID NO: 41] the -log Kd value was -5.3.
For LTEEHGATL [peptide of SEQ ID NO: 42], the -log Kd value was -4.92.
Work on LVEEHGATL [peptide of SEQ ID NO: 43] yielded a -log Kd value of -4.86.
With YFFTVIFSF [peptide of SEQ ID NO: 44] the -log Kd value was over -4.4.
With LTITRKSFI [peptide of SEQ ID NO: 45] the -log Kd value was -3.79.
With LAITRKSFI [peptide of SEQ ID NO: 46] the -log Kd value was -3.04.
With EAIDGYITL [peptide of SEQ ID NO: 47] the -log Kd value was -4.72.
AQAPPTAQL [peptide of SEQ ID NO: 5] gave a -log Kd value of -5.85.
AQISAYRTC [peptide of SEQ ID NO: 50] gave a -log Kd value of -4.09.
GTHLDAGTV [peptide of SEQ ID NO: 51] gave a -log Kd value of -3.66.
With ETLQFIDSM [peptide of SEQ ID NO: 53] the -log Kd value was -3.37.
In the case of ALAPPTAQL [peptide of SEQ ID NO: 6], the -log Kd value is reported as -6.41.
LAEEHGATL [peptide of SEQ ID NO: 61] showed a -log Kd value of -4.5.
VMQIDGVQP [peptide of SEQ ID NO: 67] was tested, and the -log Kd value was -3.41.
SLPNEKQTS [peptide of SEQ ID NO: 69] gave a -log Kd value of over -3.
For ILSDHQQSQ [peptide of SEQ ID NO: 70], the -log Kd value was over -3.
Work on STGESAQTS [peptide of SEQ ID NO: 71] yielded a -log Kd value of over -3.
GSPDEFSND [peptide of SEQ ID NO: 72] was tested, and the -log Kd value was over -3.
SPDEFSNDF [peptide of SEQ ID NO: 73] was tested, and the -log Kd value was over -3.
For GILSDHQQS [peptide of SEQ ID NO: 74], the -log Kd value was over -3.
THLDAGTVE [peptide of SEQ ID NO: 75] gave a -log Kd value of over -3.
LPPARHSTI [peptide of SEQ ID NO: 76] gave a -log Kd value of over -3.
For ARHSTIPLV [peptide of SEQ ID NO: 77], the -log Kd value was over -3.
Work on IFADVSSST [peptide of SEQ ID NO: 78] yielded a -log Kd value of over -3.
Work on LHEEHGATL [peptide of SEQ ID NO: 79] yielded a -log Kd value of over -3.
Work on KFLEAFHEV [peptide of SEQ ID NO: 8] yielded a -log Kd value of -5.81.
GYITLGKPH [peptide of SEQ ID NO: 80] was tested, and the -log Kd value was over -3.
ASPSHMTSM [peptide of SEQ ID NO: 81] showed a -log Kd value of over -3.
Work on YTYDPPTTI [peptide of SEQ ID NO: 3] yielded a -log Kd value of -6.17.
For LLLFSAAAL [peptide of SEQ ID NO: 1], the -log Kd value was -4.96.
With ATLAPAVLL [peptide of SEQ ID NO: 10] the -log Kd value was -6.12.
ALPKIRARV [peptide of SEQ ID NO: 12] showed a -log Kd value of -4.78.
LMEEHGATL [peptide of SEQ ID NO: 13] showed a -log Kd value of -5.68.
In the case of SLVLTWAAL [peptide of SEQ ID NO: 14], the -log Kd value is reported as -6.24.
VLLQQFQTA [peptide of SEQ ID NO: 15] gave a -log Kd value of -5.47.
For LLITRKSFI [peptide of SEQ ID NO: 16], the -log Kd value was -4.63.
In the case of LMITRKSFI [peptide of SEQ ID NO: 17], the -log Kd value is reported as -4.53.
Binder VMSHHGEKL [peptide of SEQ ID NO: 19] has a -log Kd value of -4.3.
YVYDPPTTI [peptide of SEQ ID NO: 2] gave a -log Kd value of -5.55.
LLNPNRQTI [peptide of SEQ ID NO: 23] was tested, and the -log Kd value was -3.53.
MLPQTPSHL [peptide of SEQ ID NO: 24] showed a -log Kd value of -3.96.
Binder ATAPPTAQL [peptide of SEQ ID NO: 25] has a -log Kd value of -6.16.
ALRPAPALL [peptide of SEQ ID NO: 26] was tested, and the -log Kd value was over -3.37.
CIDEHQWQL [peptide of SEQ ID NO: 28] showed a -log Kd value of -5.25.
Binder LIITRKSFI [peptide of SEQ ID NO: 29] has a -log Kd value of -3.64.
With LVITRKSFI [peptide of SEQ ID NO: 30] the -log Kd value was -3.61.

What follows are binders tested against HLA-A*24:02 molecule (assay: flow cytometry, C1R-A24 cells). Conditions: not given.
With YQLSPPITW (modifications not checked) [peptide of SEQ ID NO: 32] the -log Kd value was -5.76.

Target: HLA-A*02:01 molecule
Assay: flow cytometry, T2 cells
Conditions: not given
Remark: another data set of the same source
Work on YQLSPPITW (modifications not checked) [peptide of SEQ ID NO: 32] yielded a -log Kd value of -3.46.

Target: HLA-A*24:02 molecule
Assay: flow cytometry, C1R-A24 cells
Conditions: not given
Remark: another data set of the same source
In the case of YQLSPPITW (modifications not checked) [peptide of SEQ ID NO: 32], the -log Kd value is reported as -6.76.
In the case of ALPAPHLTL (modifications not checked) [peptide of SEQ ID NO: 18], the -log Kd value is reported as -6.73.
IALETPVWI (modifications not checked) [peptide of SEQ ID NO: 20] was tested, and the -log Kd value was -5.48.
IQYSSFHNL (modifications not checked) [peptide of SEQ ID NO: 21] showed a -log Kd value of -6.53.
Work on ALQFLIPRL (modifications not checked) [peptide of SEQ ID NO: 22] yielded a -log Kd value of -4.96.
ALQPPCPNL (modifications not checked) [peptide of SEQ ID NO: 31] was tested, and the -log Kd value was -5.31.

Same assay, conditions: remark: other sources report otherwise
With YPGWHSTTI [peptide of SEQ ID NO: 52] the -log Kd value was -5.66.
